According to the supplement of paper PMC9170038:

Experiments:
MS2 coat protein [1] = assay: apparent KD of MS2 coat protein, switch ON state; designed switch direction (-1 OFF switch, 1 ON switch): 1; higher = weaker reporter binding; details: FMN input: 0 or 200 uM; Eterna round: R93 (includes R88 designs)
Outline: (§1)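 Designed RNA switches were transcribed on-chip from Illumina sequencing clusters and titrated with SNAP-549-labelled MS2 coat protein in twofold steps from 0.7 or 1.5 nM up to 3 µM. Each step lasted 0.8–1.5 h at first and 10–20 min by the end, in 100 mM Tris-HCl pH 7.5, 80 mM KCl and 4 mM MgCl2, without or with constant ligand. Apparent KD is the median, for each design, of fits to normalised cluster binding curves.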

MS2 coat protein [2] = assay: apparent KD of MS2 coat protein, switch OFF state (with FMN for OFF switches, without FMN for ON switches); designed switch direction (-1 OFF switch, 1 ON switch): 1; higher = weaker reporter binding; details: FMN input: 0 or 200 uM; Eterna round: R93 (includes R88 designs)
Outline: as §1

Sequence	apparent KD of MS2 coat protein (MS2 coat protein [1])	apparent KD of MS2 coat protein (MS2 coat protein [2])
AGAAAUAAAAGAGAGGAUAUCCAAAAGAAAACAUGAGGAUCACCCAUGUAAAAGAAAAUAAAGUGGGAGAAGGCUCAAAAUAAGA [Jieux modified]	16.4 nM	129 nM
AGAAAUAAAAGGCAGGAUAUCCAAAAGAAAACAUGAGGAUCACCCAUGUAAAAGAAAAAAAAAUGGGAGAAGGGCCAAAUAAAGA [Mat - Same State 2 - Eli mod - D90]	20.7 nM	21.4 nM
AGAAAUAAAAGUCAGGAUAUGGGUAAGAAAACAUGAGGAUCACCCAUGUAAAAGAAAAUAAAAAACCAGAAGGGACAAAAUAAAG [Reversing G segment in JL's winner (80%) Variant 4]	30.1 nM	88.6 nM
AGCACGUGAUUGGAGGAUAUGUAGUAAGCAACAUGAGGAUCACCCAUGUCUGAGGCUGAAAAGCAGCAGAAGGCCGAUACAACCA [SS2-1.5]	18.2 nM	19.2 nM
AGGAAACAUGAGGAUCACCCAUGUAAAAAUAUGGGAGGAUAUACAAACAGGAAAGUGAGAGUAGAAGGCCUAAAAG [Garnet 19]	42.4 nM	231 nM
AGGAAACAUGAGGAUCACCCAUGUAAAAAUAUGGGAGGAUAUUGAAAGACGAAAGUCAAACAAGAAGGCCUAAAAG [Garnet 21]	24 nM	128 nM
AGGAGACAUGAGGAUCACCCAUGUGAGAAGAGGCGAGGAUAUCGAAAGAAAGAAGAGAAACGAGAAGGCGCGAGAG [salish99-SS1-025]	28.4 nM	37.4 nM
AUAAAACAUGAGGAUCACCCAUGUAAAAAUAUGGGAGGAUAUACGAAAUAAAAUAAAUACGUAGAAGGCCUAAAAA [SS! MT 20]	20.2 nM	111 nM
AUAAAACAUGAGGAUCACCCAUGUAGAAAUAUGGGAGGAUAUACGAAGACGAAAGUCGAAGUAGAAGGCCUAAAAG [Mat - Same State 1 - Meechl mod - D116]	27.7 nM	67.7 nM
AUAAAACAUGAGGAUCACCCAUGUCCGACAAAUCAAGGAUAUGAGAGCCAAACCAGGCUGUUAGAAGGUGAAAGAA [Edorlebere]	154 nM	182 nM
AUAAAACAUGAGGAUCACCCAUGUCCGACAAAUCAAGGAUAUGAUAGCCAAACCAGGCCGUUAGAAGGUGAAAGAA [Edgeza]	276 nM	147 nM
AUAAAUAAAAGUGAGGAUAUCCAAAAAAAAACAUGAGGAUCACCCAUGUAAAAGAAAAUAAAAUGGGAGAAGGCACAAAAUAAAU [SS2 M 10]	11.9 nM	26.2 nM
AUAAUAAUAAGGUAGGAUAUACUAAAGUAAACAUGAGGAUCACCCAUGUAAAGAAAAAAACUCAUGUAGAAGGGCCAGAAAUAAA [moonwalk 3]	53.2 nM	62.3 nM
AUAAUACAUGAGGAUCACCCAUGUCAAGGCUAUCAAGGAUAUAGACAACGUAGCGGUUGACUAGAAGGUGAGAAAU [Onxeanis]	124 nM	78.8 nM
AUAUGCAUAGACAAGGAUAUCGGUCUAGAAACAUGAGGAUCACCCAUGUAAGUGAAAAUCUGUAAUGAGAAGGUGUUGUUGGGUU [Isan]	75 nM	89.4 nM
AUGAAAGUAACACAGGAUAUCGAGGAUACAACAUGAGGAUCACCCAUGUACAUACGAACGUAUAACGAGAAGGGUGGAUGAUCUUC [ss2]	140 nM	62.8 nM
CAGGACAUAGGAUAGGAUAUAUGAAUAAUUACAUGAGGAUCACCCAUGUCCAUUUAUAUGGGAACAUAGAAGGGUUGUAGUUAUG [Mat - Same state - Malcolm Mod - D143]	515 nM	388 nM

Sequence	apparent KD of MS2 coat protein (MS2 coat protein [1])	apparent KD of MS2 coat protein (MS2 coat protein [2])
CCGAUACAUGAGGAUCACCCAUGUUAGGUAGAACAAGGAUAUCUAGAUAGAUAAAAAUAUAGAGAAGGUGUAUAAC [JR_SS001_Sub208]	17.1 nM	26 nM
CCGAUGGUAUACUAGGAUAUGGGCGCCCUUACAUGAGGAUCACCCAUGUUAUCACAAAUCCGCGGCCAGAAGGAGUUCAUGGGAG [Ustiririra]	62.8 nM	151 nM
CGAAAGGAGAGAGAGGAUAUCCAAAGGAAAACAUGAGGAUCACCCAUGUAGAAGGUAGGAGAUUGGGAGAAGGCUCAAGAGAGAC [salish99-ss2-148]	24 nM	48.2 nM
CGGAGACAUGAGGAUCACCCAUGUGAGAAGAGGCGAGGAUAUUGAAAGAAAGAAGAGAAAUGAGAAGGCGCGAGCC [salish99-SS1-083]	55.3 nM	38.1 nM
CGGCUAAACGGGCAGGAUAUGUUCACUAGAACAUGAGGAUCACCCAUGUGAAACUGGCGAUAAUCGCAGAAGGGCCCGUGCACGA [Atensoin]	17.6 nM	61.3 nM
CGGCUACAUGAGGAUCACCCAUGUCAGCCGAGGGCAGGAUAUGUGGUUCAUUCUCAAGCAACAGAAGGGUCAAAAG [Istiacedi]	16.9 nM	18.7 nM
GAAAAACAUGAGGAUCACCCAUGUAAUACAACAUCAGGAUAUUGAUUUUACUAUGUAUUGCAAGAAGGGAUGAAAG [Mat - Same State 1 - Hyphema mod - D100]	57.2 nM	42.6 nM
GAAAAACAUGAGGAUCACCCAUGUAGAAAUAUGGGAGGAUAUACAAAGACGAAAGUCAAAGUAGAAGGCCUGAUAG [JL S1 M-MoE mod 3]	28.6 nM	79.2 nM
GAAAAACAUGAGGAUCACCCAUGUAGAAAUAUGGGAGGAUAUACAAAGUCGAAAGACAAAGUAGAAGGCCUAAAAG [Mat - Same State 1 - Eli mod - D2]	24.6 nM	67.1 nM
GAAAAACAUGAGGAUCACCCAUGUAGAAAUAUGGGAGGAUAUACGAAGUCGAAAGACAAAGUAGAAGGCCUAAAAG [Garnet 27]	27.9 nM	50.4 nM
GAAAAACAUGAGGAUCACCCAUGUGAUAACAUGGGAGGAUAUACAAGGACGAUAGUCAAAGUAGAAGGCCUAAAAG [Garnet 61]	289 nM	47.9 nM
GAAAAACAUGAGGAUCACCCAUGUGAUAAUAUGGGAGGAUAUACGAAGACGAAAGUCAAAGUAGAAGGCCUAAAAG [Garnet 36]	57.5 nM	81.7 nM
GAAAAACAUGAGGAUCACCCAUGUGUAAACAUGGGAGGAUAUACGAAGACGUAAGUCAAAGUAGAAGGCCUAAAAG [Garnet 36]	47.1 nM	24.9 nM
GAAAAGAAAACACAGGAUAUCCAAAAGAAAACAUGAGGAUCACCCAUGUAAAGAAAAUAAAAAUGGGAGAAGGGUGAAAGAAAGA [Mat - Same State 2 - JL mod - D42]	20.9 nM	53.6 nM
GAAAUACAUGAGGAUCACCCAUGUUAGGUGAUUCAAGGAUAUCAAGGUAAAUAAAAACCUUGAGAAGGUGAAUAAA [JR_SS001_Sub205]	177 nM	163 nM
GAAAUACAUGAGGAUCACCCAUGUUAGGUGGAUCAAGGAUAUCAAGGUAAAUAAAAACCUUGAGAAGGUGAAUAAA [JR_SS001_Sub204]	87.8 nM	141 nM
